{
  "source": "paper PMC5681633",
  "about": "“SnO2 hollow nanotubes: a novel and efficient support matrix for enzyme immobilization” (Scientific Reports, 2017)",
  "proteins": {"B1": {"name": "Lipase from Thermomyces lanuginosus (Lipozyme TL 100 L) (Thermomyces lanuginosus) (protein)", "chain": "EVSQDLFNQFNLFAQYSAAAYCGKNNDAPAGTNITCTGNACPEVEKADATFLYSFEDSGVGDVTGFLALDNTNKLIVLSFRGSRSIENWIGNLNFDLKEINDICSGCRGHDGFTSSWRSVADTLRQKVEDAVREHPDYRVVFTGHSLGGALATVAGADLRGNGYDIDVFSYGAPRVGNRAFAEFLTVQTGGTLYRITHTNDIVPRLPPREFGYSHSSPEYWIKSGTLVPVTRNDIVKIEGIDATGGNNQPNIPDIPAHLWYFGLIGTCL", "notes": "commercial secreted enzyme preparation (Novozymes), free (not immobilised)"}},
  "substrate": "CCCCCCCCCCCCCCCC(=O)Oc1ccc([N+](=O)[O-])cc1",
  "assay": "hydrolysis assay, Michaelis-Menten nonlinear fit",
  "type": "biochemical, Thermomyces lanuginosus",
  "settings": "free enzyme, optimum temperature and pH (50 °C, pH 8.5, 20 mM Tris-HCl), substrate 0.05-5.0 mM, p-NPP as the standard assay substrate",
  "text": "hydrolysis assay, Michaelis-Menten nonlinear fit on Lipase from Thermomyces lanuginosus (Lipozyme TL 100 L)",
  "data": [
    {"protein": "B1", "values": [
      {"measurement": "Km", "value": "710 ± 50", "unit": "µM"}
    ]}
  ]
}
